Test results from PMC5354511, “Autophosphorylation-based Calcium (Ca^2+) Sensitivity Priming and Ca^2+/Calmodulin Inhibition of Arabidopsis thaliana Ca^2+-dependent Protein Kinase 28 (CPK28)*^([image sbox.jpg])^♦” (The Journal of Biological Chemistry, 2017).

Molecular target: T1, recombinant CaM6 (untagged) (UniProt Q03509 1-149)
T1 construct: calmodulin 6 (CaM6), 'a conserved CaM isoform'; recombinant, untagged; also called Ca2+/CaM; source: E. coli NiCO (DE3), purified (heat step, phenyl-Sepharose)
Assay: native gel or EMSA; CaM (240 pmol) with different amounts of LL22 or pLL22 peptide in the ratios indicated, 20 μl, 60 min, then native PAGE
Conditions: both partners purified

- stoichiometry N: 1
Binder: LRQFVRYSRLKQFALRALASTL (source: synthetic peptide (LifeTein)) [LL22 peptide (CPK28 autoinhibitory junction)]
